Columns and labels:
[1] = target: His6-tagged ComE T128A (non-phosphorylatable) T128A; assay: Sandwich fluorescence-linked immunosorbent assay (FLISA); settings: no added salt stated (50 mM Bis-Tris-Propane-HCl, 1 mM MgCl2), 1 mM MgCl2, pH 7.8 or the same buffer at pH 6.0
[2] = target: His6-tagged ComE T128E (phosphomimetic) T128E; assay: as above; settings: no added salt stated (50 mM Bis-Tris-Propane-HCl, 1 mM MgCl2), 1 mM MgCl2, pH 7.8 or the same buffer at pH 6.0
[3] = target: His6-tagged ComE (response regulator ComE, wild type); assay: as above; settings: no added salt stated (50 mM Bis-Tris-Propane-HCl, 1 mM MgCl2), 1 mM MgCl2, pH 7.8 or the same buffer at pH 6.0
[4] = tested on: ComE T128A (Hisx6) (Streptococcus pneumoniae R801); assay: EMSA
[5] = tested on: ComE T128E (Hisx6) (Streptococcus pneumoniae R801); assay: EMSA
[6] = tested on: ComE wt (Hisx6) (Streptococcus pneumoniae R801); assay: EMSA
[7] = tested on: ComE D58E (Hisx6) (Streptococcus pneumoniae R801); assay: EMSA
[8] = pH 6.0, 37°C (binding step, 1 h)
[9] = pH 7.8, 37°C (binding step, 1 h)

| Substance | K1/2 [1, 8] [ng] | K1/2 [1, 9] [ng] | K1/2 [2, 8] [ng] | K1/2 [2, 9] [ng] | K1/2 [3, 8] [ng] | K1/2 [3, 9] [ng] | Kd [4] [µM] | Kd [5] [µM] | Kd [6] [µM] | Kd [7] [µM] |
| --- | --- | --- | --- | --- | --- | --- | --- | --- | --- | --- |
| GST-StkP (serine/threonine protein kinase StkP, wild type) | 100 | 110 | 3200 | 900 | 94 | 330 | – | – | – | – |
| GST-StkP K42M (kinase-inactive) K42M | 100 | 80 | – | – | 55 | 140 | – | – | – | – |
| pcomC (comCDE promoter) | – | – | – | – | – | – | 0.375 | 0.074 | 0.371 | 0.021 |

— article PMC6010298
